Test results published in paper PMC11080044, “Contribution of a C-Terminal Extension to the Substrate Affinity and Oligomeric Stability of Aldehyde Dehydrogenase from Thermus thermophilus HB27” (Biochemistry, 2024).

B1: Aldehyde dehydrogenase from Thermus thermophilus HB27, native (ALDHTt-native) (enzyme, UniProt Q72KD3 1-530, looked up)
chain: MRKAAGKYGNTLEFGHLVGGEEVLEGPLLERRNPSDREDVVARFPEADKDLVRKAALKAREAFAEWSRTPAPIRGQVLFNLVKILEREKPTLTRLMVREVGKTPKEAAGDVQEAIDTALFFASEGRRLYGQTVPSEMRDKELFTFRRPLGVVGIITAGNFPIAVPSWKLIPAVLTGNTVVWKPSEDAPTLSFVFAKLFEEAGLPPGVLNVVFGGGKGSTGQWMVELMDEGLFQKFAFTGSTQVGRWIGEVAGRNLIRPTLELGGKNPLVVMRDADLDLAVEGAWWSAFATGGQRCTSAGNILVDAPIYEEFKRRFLERVEATLVGNPLLHPEVTYGPFINERFFARWQEHYRVGEAEGARLLFGRGRITRENPYPRFLGDPEAGLYGWPTVWEVRPGTRLFTEEVFGPTINLVKVDGIEEAIAVANSTPYGLSSAIYTNHRHWAYLFKVGIRAGMTSINNATVGAEAHLPFGGVKASGNGGRESGIWVLEEYTYWHAVNEEYSGRLQLAQMDTGYVSPKAPTPWGEVLGL
notes: Aldehyde dehydrogenase ALDHTt of Thermus thermophilus strain HB27, UniProtKB Q72KD3, 530 amino acids, with its 30-residue C-terminal tail; pET22b(+) construct
B2: ALDHTt-508, aldehyde dehydrogenase from Thermus thermophilus HB27 with a 22-amino acid truncation of the C-terminus (enzyme, UniProt Q72KD3 1-508, looked up)
chain: MRKAAGKYGNTLEFGHLVGGEEVLEGPLLERRNPSDREDVVARFPEADKDLVRKAALKAREAFAEWSRTPAPIRGQVLFNLVKILEREKPTLTRLMVREVGKTPKEAAGDVQEAIDTALFFASEGRRLYGQTVPSEMRDKELFTFRRPLGVVGIITAGNFPIAVPSWKLIPAVLTGNTVVWKPSEDAPTLSFVFAKLFEEAGLPPGVLNVVFGGGKGSTGQWMVELMDEGLFQKFAFTGSTQVGRWIGEVAGRNLIRPTLELGGKNPLVVMRDADLDLAVEGAWWSAFATGGQRCTSAGNILVDAPIYEEFKRRFLERVEATLVGNPLLHPEVTYGPFINERFFARWQEHYRVGEAEGARLLFGRGRITRENPYPRFLGDPEAGLYGWPTVWEVRPGTRLFTEEVFGPTINLVKVDGIEEAIAVANSTPYGLSSAIYTNHRHWAYLFKVGIRAGMTSINNATVGAEAHLPFGGVKASGNGGRESGIWVLEEYTYWHAVNEEYSGRLQL
notes: Aldehyde dehydrogenase ALDHTt of Thermus thermophilus strain HB27, UniProtKB Q72KD3, without the last 22 amino acids of the 530; also called truncated mutant

Tests used:
Q72KD3 [1] = assay: SEC; SE-HPLC as in a1, after 5 min incubation at 65 °C and centrifugation at 10000 x g
Q72KD3 [2] = assay: SEC; SE-HPLC as in a1, after 10 min incubation at 65 °C and centrifugation at 10000 x g
Q72KD3 [3] = assay: SEC; SE-HPLC as in a1, after 15 min incubation at 65 °C and centrifugation at 10000 x g
Q72KD3 [4] = assay: SEC; SE-HPLC as in a1, after 20 min incubation at 65 °C and centrifugation at 10000 x g
Q72KD3 [5] = assay: SEC; SE-HPLC (AdvanceBio SEC 300 Å), untreated protein injected directly after thawing, 0.5 mg/mL, 10 mM potassium phosphate buffer pH 8.0, room temperature; oligomeric states from a calibration plot, percent of peak area, triplicate
[6] = target: the molecule itself; assay: as above
[7] = target: the molecule itself; assay: SEC; SE-HPLC (AdvanceBio SEC 300 Å) of ALDHTt-508 purified after a 15 min heat shock of the lysate at 65 °C; 50 µL of 0.5 mg/mL, percent of total peak area

Protein | % dimer (SE-HPLC) (Q72KD3 [1]) [%] | % monomer (SE-HPLC) (Q72KD3 [1]) [%] | % tetramer (SE-HPLC) (Q72KD3 [1]) [%] | % dimer (SE-HPLC) (Q72KD3 [2]) [%] | % monomer (SE-HPLC) (Q72KD3 [2]) [%] | % tetramer (SE-HPLC) (Q72KD3 [2]) [%] | % dimer (SE-HPLC) (Q72KD3 [3]) [%] | % monomer (SE-HPLC) (Q72KD3 [3]) [%] | % tetramer (SE-HPLC) (Q72KD3 [3]) [%] | % dimer (SE-HPLC) (Q72KD3 [4]) [%] | % monomer (SE-HPLC) (Q72KD3 [4]) [%] | % tetramer (SE-HPLC) (Q72KD3 [4]) [%] | % dimer (SE-HPLC) (Q72KD3 [5]) [%] | % monomer (SE-HPLC) (Q72KD3 [5]) [%] | % tetramer (SE-HPLC) (Q72KD3 [5]) [%] | stoichiometry N [6] | % of fully folded protein in the tetrameric peak [7] [%]
B1 | 0 | 0 | 97.7 | 0 | 0 | 94.9 | 0 | 0 | 93.7 | 0 | 0 | 93.2 | 0 | 0 | 98.8 | 4 | –
B2 | 0 | 0.87 | 95.4 | 0 | 0.79 | 93.1 | 0 | 0.55 | 95.8 | 0 | 0.71 | 91.4 | 1.71 | 2.5 | 90 | 4 | 6.4 ± 1.5
